Source: article PMC11229353 (Nucleic Acids Research, 2024)
“Also recorded” adds a separate entry of the source. The star is where a group is joined. Biotin = O=C1N[C@H]2[C@H](CS[C@H]2CCCCC(=O)*)N1

B2: DMC1 (untagged full-length human DMC1, wild type) (natural protein, UniProt Q14565 1-340, looked up)
chain: MKEDQVVAEEPGFQDEEESLFQDIDLLQKHGINVADIKKLKSVGICTIKGIQMTTRRALCNVKGLSEAKVDKIKEAANKLIEPGFLTAFEYSEKRKMVFHITTGSQEFDKLLGGGIESMAITEAFGEFRTGKTQLSHTLCVTAQLPGAGGYPGGKIIFIDTENTFRPDRLRDIADRFNVDHDAVLDNVLYARAYTSEHQMELLDYVAAKFHEEAGIFKLLIIDSIMALFRVDFSGRGELAERQQKLAQMLSRLQKISEEYNVAVFVTNQMTADPGATMTFQADPKKPIGGHILAHASTTRISLRKGRGELRIAKIYDSPEMPENEATFAITAGGIGDAKE

Key:
[1] = biological target: T1, DMC1 (Homo sapiens, UniProt Q14565); experiment: Biolayer interferometry; type: binding; settings: immobilized biotinylated peptide, DMC1 concentration of 5 μM, 25°C
T1 sequence (Q14565 1-340): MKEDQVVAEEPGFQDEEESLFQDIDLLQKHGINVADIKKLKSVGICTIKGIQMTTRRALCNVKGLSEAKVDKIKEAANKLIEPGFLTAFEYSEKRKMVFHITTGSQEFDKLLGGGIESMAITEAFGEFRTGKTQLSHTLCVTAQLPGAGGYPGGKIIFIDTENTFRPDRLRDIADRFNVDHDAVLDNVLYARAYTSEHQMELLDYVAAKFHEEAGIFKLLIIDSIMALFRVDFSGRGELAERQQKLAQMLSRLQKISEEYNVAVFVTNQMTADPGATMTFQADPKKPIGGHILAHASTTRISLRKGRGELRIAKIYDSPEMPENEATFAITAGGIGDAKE

[2] = test system: DMC1–ssDNA filaments; experiment: Electrophoretic mobility shift assay; type: binding, human; settings: EMSA, 2 μM DMC1, 2 μM PhePP F2s3, 90 nt ssDNA, Ca-ATP, 30 min 37°C
[3] = biological target: T2, DMC1 (human, UniProt Q14565 1-340); experiment: EMSA
T2 sequence: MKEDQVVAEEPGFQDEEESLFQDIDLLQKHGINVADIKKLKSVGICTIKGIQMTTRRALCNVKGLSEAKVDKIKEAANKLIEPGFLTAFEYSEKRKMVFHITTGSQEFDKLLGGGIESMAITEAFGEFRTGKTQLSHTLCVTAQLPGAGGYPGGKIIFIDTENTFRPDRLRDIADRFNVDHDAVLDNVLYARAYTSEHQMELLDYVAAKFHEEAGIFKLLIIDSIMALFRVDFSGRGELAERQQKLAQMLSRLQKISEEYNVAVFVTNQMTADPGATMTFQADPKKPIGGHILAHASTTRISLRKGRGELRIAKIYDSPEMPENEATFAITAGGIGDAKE

[4] = biological target: T3, DMC1 F89A (human, UniProt Q14565 1-340, F89A); experiment: EMSA
T3 sequence: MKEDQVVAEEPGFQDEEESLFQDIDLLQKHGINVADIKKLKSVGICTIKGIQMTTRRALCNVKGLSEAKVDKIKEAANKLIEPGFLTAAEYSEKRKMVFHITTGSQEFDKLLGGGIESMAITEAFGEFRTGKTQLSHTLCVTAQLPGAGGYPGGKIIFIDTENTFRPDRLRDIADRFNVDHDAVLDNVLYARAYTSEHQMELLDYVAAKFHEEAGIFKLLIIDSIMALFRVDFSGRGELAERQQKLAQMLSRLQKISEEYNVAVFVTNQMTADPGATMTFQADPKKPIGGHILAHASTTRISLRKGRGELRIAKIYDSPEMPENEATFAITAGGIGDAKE

[5] = biological target: T4, DMC1;BRCA2 F2s3 (PhePP) (human;human, UniProt Q14565;P51587 1-340;2379-2433, |); experiment: EMSA
T4 sequence 1: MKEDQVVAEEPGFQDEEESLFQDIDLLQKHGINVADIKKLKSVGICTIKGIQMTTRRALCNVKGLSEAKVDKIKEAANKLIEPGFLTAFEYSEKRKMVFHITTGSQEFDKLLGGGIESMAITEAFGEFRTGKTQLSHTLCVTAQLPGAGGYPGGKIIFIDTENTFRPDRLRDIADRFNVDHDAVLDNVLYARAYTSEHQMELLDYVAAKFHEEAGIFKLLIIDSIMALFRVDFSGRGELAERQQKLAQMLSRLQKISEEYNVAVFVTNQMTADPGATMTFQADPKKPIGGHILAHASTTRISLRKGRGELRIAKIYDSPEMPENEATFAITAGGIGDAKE
T4 sequence 2: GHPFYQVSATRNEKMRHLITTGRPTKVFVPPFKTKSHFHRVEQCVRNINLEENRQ

[6] = biological target: B2; experiment: ITC
[7] = biological target: B2; experiment: BLI
[8] = biological target: the molecule itself; experiment: crystal structure
[9] = biological target: B2; experiment: pull-down
[10] = biological target: B2; experiment: BLI; remark: listed apart in the source

In the case of “Biotin-GSG-SNHSFGGSFRTASNKEIKLSEHNIKKSKMFFKDIEE-NH2 [BRC1, reference compound]”, the “binding to DMC1 detected by BLI” value [1] is reported as “No binding was detected; also recorded: no interaction could be detected”.

“F2s3: purified bacterially expressed BRCA2 fragment 2379–2433 containing the PhePP motif” was tested, and the “effect on electrophoretic mobility of the DMC1–ssDNA complex” value [2] was “reduced electrophoretic mobility”.

“Biotin-GSG-VSPAAQKAFQPPRSSGTKYE-NH2 [TR2]” was tested, and the “binding to DMC1 detected by BLI” value [1] was “No binding was detected; also recorded: no interaction could be detected”.

In the case of “Biotin-GSG-TTGRPTKVAVPPFKTKSHFH-NH2 [PhePPmut]”, the “binding to DMC1 detected by BLI” value [1] is reported as “No binding was detected”.

B1: AF-647-SK3-90 ssDNA (ssDNA)
DNA: AATTCTCATTTTACTTACCGGACGCTATTAGCAGTGGCAGATTGTACTGAGAGTGCACCATATGCGGTGTGAAATACCGCACAGATGCGT
B1: binds [3]; binds [4]; binds [5].

Work on Ac-TTGRPTKVFVPPFKTKSHFH-NH2 [BRCA2 F2s6 (2398–2417) synthetic peptide] yielded a Kd [6] of 3400 ± 1300 nM and a Kd [7] of 2100 ± 500 nM.

With B2 the “stoichiometry N” value [8] was 8.

B3: GST-tagged BRCA2 F2 R2401A (domain or fragment, human, UniProt P51587 2351-2479, looked up)
chain: APGQEFLSKSHLYEHLTLEKSSSNLAVSGHPFYQVSATRNEKMRHLITTGAPTKVFVPPFKTKSHFHRVEQCVRNINLEENRQKQNIDGHGSDDSKNKINDNEIHQFNKNNSNQAVAVTFTKCEEEPLD
B3: binds [9].

B4: GST-tagged BRCA2 F2 (2351–2479), wild type (domain or fragment, human, UniProt P51587 2351-2479, looked up)
chain: APGQEFLSKSHLYEHLTLEKSSSNLAVSGHPFYQVSATRNEKMRHLITTGRPTKVFVPPFKTKSHFHRVEQCVRNINLEENRQKQNIDGHGSDDSKNKINDNEIHQFNKNNSNQAVAVTFTKCEEEPLD
B4: binds [9].

Biotin-GSGTTGRPTKVFVPPFKTKSHFH-NH2 [biotinylated BRCA2 F2s6 peptide (Biotin-GSG-F2s6-NH2)] was tested, and the Kd [10] was about 1 nM.

B5: GST-tagged BRCA2 F2s3 R2401A (domain or fragment, human, UniProt P51587 2379-2433, looked up)
chain: GHPFYQVSATRNEKMRHLITTGAPTKVFVPPFKTKSHFHRVEQCVRNINLEENRQ
B5: binds [9].

B6: GST-tagged BRCA2 F2s3 K2404A (domain or fragment, human, UniProt P51587 2379-2433, looked up)
chain: GHPFYQVSATRNEKMRHLITTGRPTAVFVPPFKTKSHFHRVEQCVRNINLEENRQ
B6: binds [9].

Biotin-GSGSAESKKPKWVPPAASGGSRS-NH2 [biotinylated RAD51AP1 P-motif peptide] was tested, and the Kd [10] was about 1600 nM.

Work on Biotin-GSGRSRGILGKFVPPIPKQDGGE-NH2 [biotinylated FIGNL1 P-motif peptide] yielded a Kd [10] of about 16200 nM.

B7: GST-tagged BRCA2 F2 K2404A (domain or fragment, human, UniProt P51587 2351-2479, looked up)
chain: APGQEFLSKSHLYEHLTLEKSSSNLAVSGHPFYQVSATRNEKMRHLITTGRPTAVFVPPFKTKSHFHRVEQCVRNINLEENRQKQNIDGHGSDDSKNKINDNEIHQFNKNNSNQAVAVTFTKCEEEPLD
B7: binds [9].

B8: BRCA2 F2s3 (2379–2433), purified recombinant peptide (domain or fragment, human, UniProt P51587 2379-2433, looked up)
chain: GHPFYQVSATRNEKMRHLITTGRPTKVFVPPFKTKSHFHRVEQCVRNINLEENRQ
Molecule B8 has a Kd [6] of 3000 ± 500 nM.
